Reference: the supplement of paper PMC7125110
± gives the standard error. Variants at the floor of the assay were thinned out.

B1: glmS ribozyme (parent)
chain: AUAAAAGCGCCAGAACUACAGAAAUGUAGUUGACGAGGAGGAGGUUUAUCGAAUUUUCGGCGGAUGCCUCCAAA

Columns and labels:
Conditions in all cases: with glucosamine-6-phosphate
[1] = variants of: B1; experiment: self-cleavage kobs at 160 uM GlcN6P; higher = faster cleavage; RNA array
In short: (§1)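 Over ~14 h at 37 °C, tiles were imaged as glucosamine-6-phosphate (40 μM to 10 mM) in HEPES/KCl/Mg(OAc)2 buffer flowed across sequenced MiSeq chips. The chips carried barcoded ribozyme variants transcribed in situ by E. coli RNA polymerase and tracked with a hybridised Cy3 probe. After normalisation to baseline and to non-cleaving reference variants, one- or two-exponential decay fits of per-tile medians gave kobs. kcat and KM followed from weighted Michaelis–Menten fits across concentrations.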

[2] = variants of: B1; experiment: self-cleavage kobs at 2500 uM GlcN6P; higher = faster cleavage; RNA array
In short: as §1

[3] = variants of: B1; experiment: self-cleavage kobs at 640 uM GlcN6P; higher = faster cleavage; RNA array
In short: as §1

[4] = variants of: B1; experiment: self-cleavage kobs at 10000 uM GlcN6P; higher = faster cleavage; RNA array
In short: as §1

| Variant | self-cleavage kobs at 160 uM GlcN6P [1] | self-cleavage kobs at 2500 uM GlcN6P [2] | self-cleavage kobs at 640 uM GlcN6P [3] | self-cleavage kobs at 10000 uM GlcN6P [4] |
| --- | --- | --- | --- | --- |
| A39C G51A C61A | < 1e-05 s⁻¹ | < 1e-05 s⁻¹ |  |  |
| U31A U46G G66A | 6.92e-05 ± 2.9e-05 s⁻¹ | 0.000638 ± 0.00022 s⁻¹ | 0.000303 ± 0.00015 s⁻¹ |  |
| A12U C61A U69G | < 1e-05 s⁻¹ |  |  |  |
| C34A G41A C71U | < 1e-05 s⁻¹ |  |  |  |
| C16A C50G U55C G63C C70G | 0.000129 ± 4.7e-05 s⁻¹ |  | 0.00119 ± 0.00038 s⁻¹ |  |
| G9C G29U C50G C70G | 0.000652 ± 0.00019 s⁻¹ | 0.000253 ± 9.9e-05 s⁻¹ | 0.000131 ± 4.2e-05 s⁻¹ |  |
| A36G C50A | < 1e-05 s⁻¹ |  | < 1e-05 s⁻¹ |  |
| A42C A64U | < 1e-05 s⁻¹ | < 1e-05 s⁻¹ | < 1e-05 s⁻¹ | < 1e-05 s⁻¹ |
| C8G A14G C34G | < 1e-05 s⁻¹ | < 1e-05 s⁻¹ | < 1e-05 s⁻¹ |  |
| G13C A14G G32A | 0.000606 ± 0.00018 s⁻¹ | 0.00874 ± 0.0043 s⁻¹ | 0.00264 ± 0.00054 s⁻¹ |  |
| C10A U45C | < 1e-05 s⁻¹ | < 1e-05 s⁻¹ | < 1e-05 s⁻¹ | < 1e-05 s⁻¹ |
| G9A A52U C58U C70G | < 1e-05 s⁻¹ |  | < 1e-05 s⁻¹ |  |
| C16G G37A A48U U49C | < 1e-05 s⁻¹ |  |  |  |
| C11U A14G A39G G60C | < 1e-05 s⁻¹ |  | < 1e-05 s⁻¹ |  |
| G35A G43A | < 1e-05 s⁻¹ | < 1e-05 s⁻¹ |  |  |
| C34G G40C A48G U49G C71U | < 1e-05 s⁻¹ | < 1e-05 s⁻¹ | < 1e-05 s⁻¹ | < 1e-05 s⁻¹ |
| G9U G62A | < 1e-05 s⁻¹ | < 1e-05 s⁻¹ | < 1e-05 s⁻¹ | < 1e-05 s⁻¹ |
| G44C G59A | < 1e-05 s⁻¹ | < 1e-05 s⁻¹ | < 1e-05 s⁻¹ | < 1e-05 s⁻¹ |
| U30A G59U C61U | < 1e-05 s⁻¹ |  | < 1e-05 s⁻¹ |  |
| C10G A39U | < 1e-05 s⁻¹ |  | < 1e-05 s⁻¹ |  |
| G9U A12G U54G | < 1e-05 s⁻¹ |  |  |  |
| G35A G63C | < 1e-05 s⁻¹ | < 1e-05 s⁻¹ | < 1e-05 s⁻¹ |  |
| A42G C61A C67A | 0.000467 ± 0.00018 s⁻¹ |  |  |  |
| A39C G59U C61A | < 1e-05 s⁻¹ |  |  |  |
| G13A G44U C61G U65A | < 1e-05 s⁻¹ | < 1e-05 s⁻¹ | < 1e-05 s⁻¹ |  |
| A39G G62U | < 1e-05 s⁻¹ | < 1e-05 s⁻¹ | < 1e-05 s⁻¹ |  |

| Variant | self-cleavage kobs at 160 uM GlcN6P [1] | self-cleavage kobs at 2500 uM GlcN6P [2] | self-cleavage kobs at 640 uM GlcN6P [3] | self-cleavage kobs at 10000 uM GlcN6P [4] |
| --- | --- | --- | --- | --- |
| G26U C50G C68U | 0.000155 ± 5.5e-05 s⁻¹ |  |  |  |
| G7U A12G G32U | < 1e-05 s⁻¹ |  |  |  |
| G9A C34A | < 1e-05 s⁻¹ | < 1e-05 s⁻¹ | < 1e-05 s⁻¹ | < 1e-05 s⁻¹ |
| A39C U54G | 0.000221 ± 9.6e-05 s⁻¹ |  | 0.00106 ± 0.00043 s⁻¹ | 0.005 ± 0.0012 s⁻¹ |
| C11A G38C A42C | < 1e-05 s⁻¹ | < 1e-05 s⁻¹ |  |  |
| G29C G59U C68U | 0.000173 ± 8.1e-05 s⁻¹ |  |  |  |
| U2C U56C | 0.000197 ± 5.4e-05 s⁻¹ | 0.00287 ± 0.00077 s⁻¹ | 0.000865 ± 0.00022 s⁻¹ |  |
| G9U C34G G40C A48U C61U | < 1e-05 s⁻¹ |  |  |  |
| C10A C16A U47C U65C | < 1e-05 s⁻¹ |  | < 1e-05 s⁻¹ |  |
| A42C U54C A64G C68A | < 1e-05 s⁻¹ | < 1e-05 s⁻¹ | < 1e-05 s⁻¹ | < 1e-05 s⁻¹ |
| A42C U54G | < 1e-05 s⁻¹ |  |  |  |
| U49A A52U | < 1e-05 s⁻¹ | < 1e-05 s⁻¹ | < 1e-05 s⁻¹ | < 1e-05 s⁻¹ |
| A33G A52G U56A | < 1e-05 s⁻¹ |  |  | < 1e-05 s⁻¹ |
| C11U G43U A48G C71G | < 1e-05 s⁻¹ | < 1e-05 s⁻¹ | < 1e-05 s⁻¹ |  |
| G32A G37C | < 1e-05 s⁻¹ | < 1e-05 s⁻¹ | < 1e-05 s⁻¹ | < 1e-05 s⁻¹ |
| G13A A33G G63C | < 1e-05 s⁻¹ | < 1e-05 s⁻¹ |  |  |
| C16G G29U G37A | 5.27e-05 ± 1.6e-05 s⁻¹ | 0.000382 ± 9.7e-05 s⁻¹ | 0.000272 ± 7.4e-05 s⁻¹ |  |
| G29A A42G U45A | 6.61e-05 ± 3e-05 s⁻¹ | 0.00402 ± 0.0015 s⁻¹ | 0.00154 ± 0.00038 s⁻¹ |  |
| U46C U54A | 0.000326 ± 8.6e-05 s⁻¹ |  | 0.00148 ± 0.00038 s⁻¹ |  |
| A14C G40U G43C C50U | < 1e-05 s⁻¹ | < 1e-05 s⁻¹ |  |  |
| A6G G40U U54A | < 1e-05 s⁻¹ |  | < 1e-05 s⁻¹ |  |
| A15G C58G C68U | 8.66e-05 ± 3.1e-05 s⁻¹ | 5.67e-05 ± 1.6e-05 s⁻¹ | 6.1e-05 ± 1.7e-05 s⁻¹ | 3.61e-05 ± 1.6e-05 s⁻¹ |
| G35U A64G | < 1e-05 s⁻¹ | < 1e-05 s⁻¹ | < 1e-05 s⁻¹ |  |
| A6U U45A A48G | < 1e-05 s⁻¹ |  | < 1e-05 s⁻¹ |  |
| C10A A33C G40C C70U | < 1e-05 s⁻¹ |  | < 1e-05 s⁻¹ |  |
| G37A A48G A52G G62A | < 1e-05 s⁻¹ |  |  |  |
